According to US20140072613A1 (published 2014):

Assays:
Assay in all cases: cell-based or functional assay
GRK5(h) = GRK5(h) (human, UniProt P34947 1-590)
cKit(V560G)(h) = cKit(V560G)(h) (human, UniProt P10721 544-976)
JAK3(h) = JAK3(h) (human, UniProt P52333 781-1124, limits assumed)
c-RAF(h) = c-RAF(h) (human, UniProt P04049 306-648, limits assumed)
Bmx(h) = target: T1, Bmx(h) (human, UniProt P51813 1-675, limits assumed)
T1 sequence (looked up): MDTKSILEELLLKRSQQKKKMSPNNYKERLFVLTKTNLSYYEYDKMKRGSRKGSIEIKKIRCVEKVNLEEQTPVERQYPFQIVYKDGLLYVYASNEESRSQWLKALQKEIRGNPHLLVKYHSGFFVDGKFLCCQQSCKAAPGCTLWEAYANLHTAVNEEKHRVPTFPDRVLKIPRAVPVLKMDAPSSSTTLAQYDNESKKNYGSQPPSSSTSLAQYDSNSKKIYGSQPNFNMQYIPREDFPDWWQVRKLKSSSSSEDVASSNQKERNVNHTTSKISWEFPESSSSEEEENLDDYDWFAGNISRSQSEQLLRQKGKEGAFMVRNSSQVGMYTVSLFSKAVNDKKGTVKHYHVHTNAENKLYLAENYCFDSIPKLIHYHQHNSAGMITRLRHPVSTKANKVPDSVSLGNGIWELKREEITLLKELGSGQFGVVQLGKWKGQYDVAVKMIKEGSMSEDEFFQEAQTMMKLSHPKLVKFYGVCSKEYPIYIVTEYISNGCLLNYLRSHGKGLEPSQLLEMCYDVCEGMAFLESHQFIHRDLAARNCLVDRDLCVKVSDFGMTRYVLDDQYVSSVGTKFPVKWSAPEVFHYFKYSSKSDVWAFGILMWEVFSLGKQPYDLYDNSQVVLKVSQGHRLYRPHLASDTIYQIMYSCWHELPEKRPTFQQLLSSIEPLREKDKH

Sequence of cKit(V560G)(h) (P10721 544-976 V560G): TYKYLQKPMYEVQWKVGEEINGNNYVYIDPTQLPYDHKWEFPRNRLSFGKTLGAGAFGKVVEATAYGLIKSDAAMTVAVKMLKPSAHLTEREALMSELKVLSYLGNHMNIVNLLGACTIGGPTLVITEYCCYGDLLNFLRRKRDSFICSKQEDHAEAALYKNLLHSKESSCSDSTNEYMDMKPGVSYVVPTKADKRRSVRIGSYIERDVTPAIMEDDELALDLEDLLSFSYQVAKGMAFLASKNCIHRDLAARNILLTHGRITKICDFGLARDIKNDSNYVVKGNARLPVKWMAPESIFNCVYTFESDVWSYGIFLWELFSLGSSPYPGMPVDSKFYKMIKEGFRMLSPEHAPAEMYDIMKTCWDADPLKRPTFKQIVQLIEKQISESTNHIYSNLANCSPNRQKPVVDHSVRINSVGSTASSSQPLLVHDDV
Sequence of GRK5(h) (P34947 whole entry): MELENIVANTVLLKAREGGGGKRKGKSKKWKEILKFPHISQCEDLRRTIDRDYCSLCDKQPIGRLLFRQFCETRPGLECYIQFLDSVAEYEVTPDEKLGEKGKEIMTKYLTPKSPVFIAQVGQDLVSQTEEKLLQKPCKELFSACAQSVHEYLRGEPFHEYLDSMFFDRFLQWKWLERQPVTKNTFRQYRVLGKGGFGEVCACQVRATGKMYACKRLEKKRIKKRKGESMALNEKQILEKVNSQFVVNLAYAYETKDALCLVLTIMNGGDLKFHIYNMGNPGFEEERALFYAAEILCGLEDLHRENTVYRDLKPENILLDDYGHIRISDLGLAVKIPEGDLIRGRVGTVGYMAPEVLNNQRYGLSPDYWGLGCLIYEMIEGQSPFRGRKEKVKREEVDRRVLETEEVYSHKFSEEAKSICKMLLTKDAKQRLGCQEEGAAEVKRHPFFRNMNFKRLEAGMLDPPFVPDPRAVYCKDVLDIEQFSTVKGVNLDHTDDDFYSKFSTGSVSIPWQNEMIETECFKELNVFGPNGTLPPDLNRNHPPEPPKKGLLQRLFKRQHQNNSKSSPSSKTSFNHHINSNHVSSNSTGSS
Sequence of JAK3(h) (P52333 781-1124 limits assumed): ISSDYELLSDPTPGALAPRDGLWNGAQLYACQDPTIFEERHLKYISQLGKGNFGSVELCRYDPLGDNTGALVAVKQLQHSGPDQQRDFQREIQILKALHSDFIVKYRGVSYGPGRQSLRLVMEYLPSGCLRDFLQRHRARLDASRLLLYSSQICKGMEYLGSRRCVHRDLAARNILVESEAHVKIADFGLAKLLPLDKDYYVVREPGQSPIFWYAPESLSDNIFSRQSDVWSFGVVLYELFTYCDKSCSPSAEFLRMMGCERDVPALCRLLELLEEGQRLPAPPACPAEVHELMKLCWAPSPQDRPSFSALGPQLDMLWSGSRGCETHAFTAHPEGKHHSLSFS

Binder: KAFAKLAARLYRKALARQLGVAA [MMI-0400]
- % activity, 100 µM (GRK5(h)): 131%
- % activity, 100 µM (cKit(V560G)(h)): 124%
- % activity, 100 µM (JAK3(h)): 122%
- % activity, 100 µM (c-RAF(h)): 102%
- % activity, 100 µM (Bmx(h)): 26%
